This passage reports Kd results from article PMC10457348.

The target of the assay is nDARC(Y)-Fc: N-terminal 60 residues of human DARC (FyB) with tyrosine at position 41, fused to the Fc region of human IgG1 (human) (UniProt Q16570). The assay is described as follows: BLI; nDARC(Y)-Fc immobilised via its Fc on Anti-human IgG Fc Capture biosensors (20 ug/ml, 600 s); PvDBPII 1-120 nM; 25 C; PBS with 1 mg/ml BSA; reference biosensors with human IgG1 Fc subtracted; 1:2 binding model and steady-state analysis; mean of two experiments. (Biolayer interferometry detects binding as a change in optical thickness at a sensor tip.)

pKd: −log10 of the molar value.

With “Recombinant Plasmodium vivax Duffy Binding Protein region II, variant PvW1 (PvDBPII PvW1) (from UniProt P22290 211-525) (domain or fragment)”, the negative logarithm of the Kd (pKd) (in general, the Kd on a negative log10 scale, so that one unit is a factor of ten) was 7.92. On to “Recombinant Plasmodium vivax Duffy Binding Protein region II, variant Salvador I (PvDBPII SalI) (from UniProt P22290 211-525) (domain or fragment)”, for which the negative logarithm of the Kd (pKd) was 8.06.
